Test results as given in publication doi:10.1101/311027 (bioRxiv, 2018).

How the values were obtained:
Spc97 = target: T1, Spc97 (S. cerevisiae, UniProt P38863 1-823); assay: cross-linking
T1 sequence: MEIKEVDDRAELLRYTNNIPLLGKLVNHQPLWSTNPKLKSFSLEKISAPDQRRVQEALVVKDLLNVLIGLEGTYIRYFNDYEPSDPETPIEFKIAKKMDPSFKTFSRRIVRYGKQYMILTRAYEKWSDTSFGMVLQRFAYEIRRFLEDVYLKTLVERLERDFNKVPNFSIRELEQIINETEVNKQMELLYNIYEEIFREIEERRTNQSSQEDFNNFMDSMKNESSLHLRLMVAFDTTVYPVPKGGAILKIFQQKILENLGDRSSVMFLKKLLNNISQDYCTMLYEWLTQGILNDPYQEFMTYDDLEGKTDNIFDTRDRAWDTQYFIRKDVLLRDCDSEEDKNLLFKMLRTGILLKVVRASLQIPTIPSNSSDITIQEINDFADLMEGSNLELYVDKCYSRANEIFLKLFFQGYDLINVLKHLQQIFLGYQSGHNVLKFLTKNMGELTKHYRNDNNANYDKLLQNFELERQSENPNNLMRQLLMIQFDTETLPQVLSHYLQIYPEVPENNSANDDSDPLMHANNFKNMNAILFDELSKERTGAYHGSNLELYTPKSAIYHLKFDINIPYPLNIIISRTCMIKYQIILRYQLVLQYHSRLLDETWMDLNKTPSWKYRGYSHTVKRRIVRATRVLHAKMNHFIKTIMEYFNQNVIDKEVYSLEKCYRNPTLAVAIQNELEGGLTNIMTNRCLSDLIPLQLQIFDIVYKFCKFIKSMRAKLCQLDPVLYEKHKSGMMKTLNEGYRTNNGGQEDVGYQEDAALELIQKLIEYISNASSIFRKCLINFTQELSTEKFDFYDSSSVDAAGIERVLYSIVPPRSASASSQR

Spc98 = target: T2, Spc98 (S. cerevisiae, UniProt P53540 1-846); assay: cross-linking
T2 sequence: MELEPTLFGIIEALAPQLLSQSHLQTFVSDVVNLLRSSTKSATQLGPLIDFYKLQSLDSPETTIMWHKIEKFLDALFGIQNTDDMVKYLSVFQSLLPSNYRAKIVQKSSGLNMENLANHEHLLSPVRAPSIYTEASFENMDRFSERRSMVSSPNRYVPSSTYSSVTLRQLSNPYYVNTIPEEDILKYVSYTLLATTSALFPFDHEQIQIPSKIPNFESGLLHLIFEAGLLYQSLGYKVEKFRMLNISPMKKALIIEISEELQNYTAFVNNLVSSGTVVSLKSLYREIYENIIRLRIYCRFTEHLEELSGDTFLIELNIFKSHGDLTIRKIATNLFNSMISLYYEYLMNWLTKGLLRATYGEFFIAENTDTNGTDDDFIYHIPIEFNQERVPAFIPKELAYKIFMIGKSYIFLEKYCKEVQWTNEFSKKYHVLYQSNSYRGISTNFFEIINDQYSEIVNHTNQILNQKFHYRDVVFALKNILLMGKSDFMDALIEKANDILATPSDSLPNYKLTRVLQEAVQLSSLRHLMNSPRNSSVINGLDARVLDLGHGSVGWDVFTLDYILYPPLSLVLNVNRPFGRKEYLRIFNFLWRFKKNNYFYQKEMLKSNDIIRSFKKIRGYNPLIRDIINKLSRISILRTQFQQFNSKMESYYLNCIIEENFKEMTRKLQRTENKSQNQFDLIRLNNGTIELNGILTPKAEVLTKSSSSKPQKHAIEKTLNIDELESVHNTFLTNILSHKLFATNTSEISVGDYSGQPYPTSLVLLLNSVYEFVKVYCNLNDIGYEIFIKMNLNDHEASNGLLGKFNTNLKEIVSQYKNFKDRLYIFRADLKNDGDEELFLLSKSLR

B1: Spc110^1-401-GST (domain or fragment, S. cerevisiae, UniProt P32380 1-401, looked up)
chain: MDEASHLPNGSLKNMEFTPVGFIKSKRNTTQTQVVSPTKVPNANNGDENEGPVKKRQRRSIDDTIDSTRLFSEASQFDDSFPEIKANIPPSPRSGNVDKSRKRNLIDDLKKDVPMSQPLKEQEVREHQMKKERFDRALESKLLGKRHITYANSDISNKELYINEIKSLKHEIKELRKEKNDTLNNYDTLEEETDDLKNRLQALEKELDAKNKIVNSRKVDDHSGCIEEREQMERKLAELERKLKTVKDQVLELENNSDVQSLKLRSKEDELKNLMNELNELKSNAEEKDTQLEFKKNELRKRTNELNELKIKSDEMDLQLKQKQNESKRLKDELNELETKFSENGSQSSAKENELKMLKNKIAELEEEISTKNSQLIAKEGKLASLMAQLTQLESKLNQRD
binding result (Spc97): binds | binding result (Spc98): binds
